Results from article doi:10.1101/2024.03.15.585150 (bioRxiv, 2024).
Read-outs that look alike come from different tables or passages of the source. No end group written: not given here. *: point of attachment. Biotin = O=C1N[C@H]2[C@H](CS[C@H]2CCCCC(=O)*)N1

Tests used:
[1] = target: T1, KIX domain of CBP coactivator (KIX region 586-672) (UniProt P45481 586-672); test: BLI
[2] = target: T1, KIX domain of CBP coactivator (KIX …); test: BLI; remark: listed apart in the source

For Biotin-GSSSEPPSWVTEMLLEN [N-Myc peptide (N-Myc 9aaTAD), Biotin-GSSS-EPPSWVTEMLLEN], which Kd [1] is on record?
Its Kd is 880 ± 110 nM.

With Biotin-GSNILPSDIMDFVLKNT [MLL peptide (MLL 9aaTAD), Biotin-GS-NILPSDIMDFVLKNT] as the binder, how does the Kd [1] read?
Its Kd is 1170 ± 210 nM.

For Biotin-GSSSTQLEMVTELLG [c-Myc peptide (c-Myc 9aaTAD), Biotin-GSSS-TQLEMVTELLG], which Kd [1] is on record?
The Kd was 2160 ± 1170 nM.

Which Kd [2] does the source give for Biotin-GSSGDVSWDTLDLDDLD [Sp1-Ac peptide (acidic form of Sp1 9aaTAD), Biotin-GSS-GDVSWDTLDLDDLD] here?
The Kd was 9.77 ± 1.57 µM.
